Assay results reported in US20140094385, “SEQUENCE-SPECIFIC ENGINEERED RIBONUCLEASE H AND THE METHOD FOR DETERMINING THE SEQUENCE PREFERENCE OF DNA-RNA HYBRID BINDING PROTEINS” (MIEDZYNARODOWY INSTYUT BIOLOGII MOLEKULARNEJ I KOMORKOWEJ, published 2014).

Target: GST-ZfQQR (zinc finger ZfQQR) (artificial)
Experiment: filter; 25 mM Tris pH 8.0, 100 mM KCl, 20 uM ZnSO4, 2 mM DTT, poly dI-dC, room temperature; protein called zinc finger ZfQQR, GST fusion is the purified form described
Conditions: tags: N-terminal GST (pGEX-4T-1); label: radioactive
Method: To confirm that the consensus sequence obtained after five rounds of SELEX is bound by the zinc finger, a constant KD was measured using the nitrocellulose filter binding method. The assay was performed with radioactively labeled substrates described in the literature (LDNA, LRNA) and a consensus sequence (CDNA, CRNA) see FIG. 16:
Binding reaction contained 2 nM of labeled substrate, 2 μg poly dI-dC as a nonspecific competitor, 25 mM Tris pH 8.0, 100 mM KCl, 20 μM ZnSO₄, 2 mM DTT. The binding reaction was incubated for 30 min at room temperature and then filtered immediately through a nitrocellulose filter and washed with 8 volumes of reaction buffer of 25 mM Tris pH 8.0, 100 mM KCl, 20 μM ZnSO₄, 2 mM DTT. Measurement of the intensity of the signal coming from the retention of radioactively labeled substrate was made on an audioradiogram of the nitrocellulose filter using a Typhoon Trio scanner and ImageQuant TL software.

GST-ZfQQR (zinc finger ZfQQR) (artificial), sequence (chain, as listed by the source): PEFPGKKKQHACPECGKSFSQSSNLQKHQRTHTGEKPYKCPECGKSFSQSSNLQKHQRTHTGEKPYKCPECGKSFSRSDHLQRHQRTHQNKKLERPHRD

B1: SELEX consensus hybrid (CDNA/CRNA) (DNA:RNA)
DNA: TCACTGGTCGGTGGGAATCCTC
RNA: GAGGAUUCCCACCGACCAGUGA
With B1 the Kd was 155 nM.

B2: literature ZfQQR site hybrid (LDNA/LRNA) (DNA:RNA)
DNA: TCACTGGGGAAGAAGAATCCTC
RNA: GAGGAUUCUUCUUCCCCAGUGA
B2 was tested, and the Kd was 188 nM.
